Measurements taken from PMC6041257.

B1: GLI1 (transfected, wild type) [human] / SUFU (transfected, HEK293T) [not stated] (parent)
chain 1: MFNSMTPPPISSYGEPCCLRPLPSQGAPSVGTEGLSGPPFCHQANLMSGPHSYGPARETNSCTEGPLFSSPRSAVKLTKKRALSISPLSDASLDLQTVIRTSPSSLVAFINSRCTSPGGSYGHLSIGTMSPSLGFPAQMNHQKGPSPSFGVQPCGPHDSARGGMIPHPQSRGPFPTCQLKSELDMLVGKCREEPLEGDMSSPNSTGIQDPLLGMLDGREDLEREEKREPESVYETDCRWDGCSQEFDSQEQLVHHINSEHIHGERKEFVCHWGGCSRELRPFKAQYMLVVHMRRHTGEKPHKCTFEGCRKSYSRLENLKTHLRSHTGEKPYMCEHEGCSKAFSNASDRAKHQNRTHSNEKPYVCKLPGCTKRYTDPSSLRKHVKTVHGPDAHVTKRHRGDGPLPRAPSISTVEPKREREGGPIREESRLTVPEGAMKPQPSPGAQSSCSSDHSPAGSAANTDSGVEMTGNAGGSTEDLSSLDEGPCIAGTGLSTLRRLENLRLDQLHQLRPIGTRGLKLPSLSHTGTTVSRRVGPPVSLERRSSSSSSISSAYTVSRRSSLASPFPPGSPPENGASSLPGLMPAQHYLLRARYASARGGGTSPTAASSLDRIGGLPMPPWRSRAEYPGYNPNAGVTRRASDPAQAADRPAPARVQRFKSLGCVHTPPTVAGGGQNFDPYLPTSVYSPQPPSITENAAMDARGLQEEPEVGTSMVGSGLNPYMDFPPTDTLGYGGPEGAAAEPYGARGPGSLPLGPGPPTNYGPNPCPQQASYPDPTQETWGEFPSHSGLYPGPKALGGTYSQCPRLEHYGQVQVKPEQGCPVGSDSTGLAPCLNAHPSEGPPHPQPLFSHYPQPSPPQYLQSGPYTQPPPDYLPSEPRPCLDFDSPTHSTGQLKAQLVCNYVQSQQELLWEGGGREDAPAQEPSYQSPKFLGGSQVSPSRAKAPVNTYGPGFGPNLPNHKSGSYPTPSPCHENFVVGANRASHRAAAPPRLLPPLPTCYGPLKVGGTNPSCGHPEVGRLGGGPALYPPPEGQVCNPLDSLDLDNTQLDFVAILDEPQGLSPPPSHDQRGSSGHTPPPSGPPNMAVGNMSVLLRSLPGETEFLNSSA
chain 2: MAELRPSGAPGPTAPPAPGPTAPPAFASLFPPGLHAIYGECRRLYPDQPNPLQVTAIVKYWLGGPDPLDYVSMYRNVGSPSANIPEHWHYISFGLSDLYGDNRVHEFTGTDGPSGFGFELTFRLKRETGESAPPTWPAELMQGLARYVFQSENTFCSGDHVSWHSPLDNSESRIQHMLLTEDPQMQPVQTPFGVVTFLQIVGVCTEELHSAQQWNGQGILELLRTVPIAGGPWLITDMRRGETIFEIDPHLQERVDKGIETDGSNLSGVSAKCAWDDLSRPPEDDEDSRSICIGTQPRRLSGKDTEQIRETLRRGLEINSKPVLPPINPQRQNGLAHDRAPSRKDSLESDSSTAIIPHELIRTRQLESVHLKFNQESGALIPLCLRGRLLHGRHFTYKSITGDMAITFVSTGVEGAFATEEHPYAAHGPWLQILLTEEFVEKMLEDLEDLTSPEEFKLPKEYSWPEKKLKVSILPDVVFDSPLH

Variants of: B1
Test: co-immunoprecipitation (IP: HA (SUFU-HA), IB: Flag (GLI1-Flag))
Details: with SUFU (transfected, HEK293T); HEK293T cells; SUFU-HA + GLI1-Flag + MEKK3-Flag co-expressed; parent: 3

screen value	Variant
3.9	chain 1 S201D S204D S243D S968D T1074D S1078D

Same assay, conditions: with SUFU (transfected, HEK293T); HEK293T cells; SUFU-HA + GLI1-Flag + Vector (no MEKK3); parent: 1

ratio to parent	Variant
3	chain 1 S201D S204D S243D S968D T1074D S1078D
